{
  "source": "patent US20210179728A1",
  "key": {"[1]": {"target": "SIRPa on human monocytes (human) (UniProt P78324)", "assay": "flow cytometry on human monocytes v1/v1, PE anti-human Fc; MFI [B, panel B table]"}, "[2]": {"target": "SIRPa on human monocytes (human) (UniProt P78324)", "assay": "flow cytometry on human monocytes v1/v1, PE anti-human Fc; percent of stained monocytes [B, panel A table]"}},
  "data": [
    {"binder": "HALA (antibody, human IgG4 S228P, kappa, V domains shown) VH: EVQLVQSGAEVKKPGESLRISCKASGYTFTSYWVHWVRQMPGKGLEWIGNIDPSDSDTHYNQKFKDHVTLSVDKSISTAYLQLSSLKASDTAMYYCVRGGTGTMAWFAYWGQGTLVTVSS VL: DVVMTQSPLSLPVTLGQPASISCRSSQSLVHSYGNTYLYWYQQRPGQSPRLLIYRVSNRFSGVPDRFSGSGSGTDFTLKISRVEAEDVGVYFCFQGTHVPYTFGGGTKVEIKR", "values": [
      {"measurement": "EC50", "setting": "[1]", "result": 0.59, "unit": "µg/mL"},
      {"measurement": "EC50", "setting": "[2]", "result": 0.242, "unit": "µg/mL"}
    ]}
  ]
}
